Results from the supplement of paper PMC10266784.

B1: library; numbered along this chain (parent)
chain: MAAAAAAAAEQQSSNGPVKKSMREKAVERRSVNKEHNSNFKAGYIPIDEDRLHKTGLRGRKGNLAICVIILLFILAVINLIITLVIWAVIRIGPNGCDSMEFHESGLLRFKQVSDMGVIHPLYKSTVGGRRNENLVITGNNQPIVFQQGTTKLSVENNKTSITSDIGMQFFDPRTQNILFSTDYETHEFHLPSGVKSLNVQKASTERITSNATSDLNIKVDGRAIVRGNEGVFIMGKTIEFHMGGNMELKAENSIILNGSVMVSTTRLPSSSSGDQLGSGDWVRYKLCMCADGTLFKVQVTSQNMGCQISDNPCGNTH

Variants of: B1
Experiment: SGCB cell-surface expression functional score (HA stain, bin4 vs bin1, normalised to synonymous) (log10 ratio); higher = more cell-surface SGCB (functional)
Outline: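 Using lentivirus at MOI <0.1, HA-tagged, YFP-fused human beta-sarcoglycan codon-saturation libraries were put into HEK293 cells with stable alpha-, gamma- and delta-sarcoglycan expression, in duplicate transductions. YFP-positive cells were collected by sorting 72 hours later, grown 5–7 days, stained on ice with Alexa Fluor 647 anti-HA, fixed, sorted into four 5% intensity bins and amplicon-sequenced. The functional score takes the median, across codons and transductions, of the log ratio of highest-bin to lowest-bin variant frequency. Within each section, synonymous variants were scaled to mean 0, SD 0.5.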

| Variant | SGCB cell-surface expression functional score (log10) |
| --- | --- |
| MAAAAAAAAEQQSSNGPVKKSMREKAVERRSVNKEHNSNFKAGYIPIDEDRLHKTGLRGRKGNLAICVIILLFILAVINLIITLVIWAVIRIGPNGCDSMEFHESGLLRFKQVSDMGVIHPLYKSTVGGRRNENLVITGNNQPIVFQQGTTKLSVENNKTSITSDIGMQFFDPRTQNILFSTDYETHEFHGPSGVKSLNVQKASTERITSNATSDLNIKVDGRAIVRGNEGVFIMGKTIEFHMGGNMELKAENSIILNGSVMVSTTRLPSSSSGDQLGSGDWVRYKLCMCADGTLFKVQVTSQNMGCQISDNPCGNTH [L191G] | -1.07 |
| MAAAAAAAAEQQSSNGPVKKSMREKAVERRSVNKEHNSNFKAGYIPIDEDRLHKTGLRGRKGNLAICVIILLFILAVINLIITLVIWAVIRIGPNGCDSMEFHESGLLRFKQVSDMGVIHPLYKSTVGGRRNENLVITGNNQPIVFQQGTTKLSVENNKTSITSDIGMQFFDPRTQNILFSTDYETHEFHIPSGVKSLNVQKASTERITSNATSDLNIKVDGRAIVRGNEGVFIMGKTIEFHMGGNMELKAENSIILNGSVMVSTTRLPSSSSGDQLGSGDWVRYKLCMCADGTLFKVQVTSQNMGCQISDNPCGNTH [L191I] | -0.16 |
| MAAAAAAAAEQQSSNGPVKKSMREKAVERRSVNKEHNSNFKAGYIPIDEDRLHKTGLRGRKGNLAICVIILLFILAVINLIITLVIWAVIRIGPNGCDSMEFHESGLLRFKQVSDMGVIHPLYKSTVGGRRNENLVITGNNQPIVFQQGTTKLSVENNKTSITSDIGMQFFDPRTQNILFSTDYETHEFHFPSGVKSLNVQKASTERITSNATSDLNIKVDGRAIVRGNEGVFIMGKTIEFHMGGNMELKAENSIILNGSVMVSTTRLPSSSSGDQLGSGDWVRYKLCMCADGTLFKVQVTSQNMGCQISDNPCGNTH [L191F] | -0.08 |
| MAAAAAAAAEQQSSNGPVKKSMREKAVERRSVNKEHNSNFKAGYIPIDEDRLHKTGLRGRKGNLAICVIILLFILAVINLIITLVIWAVIRIGPNGCDSMEFHESGLLRFKQVSDMGVIHPLYKSTVGGRRNENLVITGNNQPIVFQQGTTKLSVENNKTSITSDIGMQFFDPRTQNILFSTDYETHEFHHPSGVKSLNVQKASTERITSNATSDLNIKVDGRAIVRGNEGVFIMGKTIEFHMGGNMELKAENSIILNGSVMVSTTRLPSSSSGDQLGSGDWVRYKLCMCADGTLFKVQVTSQNMGCQISDNPCGNTH [L191H] | -1.37 |
| MAAAAAAAAEQQSSNGPVKKSMREKAVERRSVNKEHNSNFKAGYIPIDEDRLHKTGLRGRKGNLAICVIILLFILAVINLIITLVIWAVIRIGPNGCDSMEFHESGLLRFKQVSDMGVIHPLYKSTVGGRRNENLVITGNNQPIVFQQGTTKLSVENNKTSITSDIGMQFFDPRTQNILFSTDYETHEFHDPSGVKSLNVQKASTERITSNATSDLNIKVDGRAIVRGNEGVFIMGKTIEFHMGGNMELKAENSIILNGSVMVSTTRLPSSSSGDQLGSGDWVRYKLCMCADGTLFKVQVTSQNMGCQISDNPCGNTH [L191D] | -1.17 |
| MAAAAAAAAEQQSSNGPVKKSMREKAVERRSVNKEHNSNFKAGYIPIDEDRLHKTGLRGRKGNLAICVIILLFILAVINLIITLVIWAVIRIGPNGCDSMEFHESGLLRFKQVSDMGVIHPLYKSTVGGRRNENLVITGNNQPIVFQQGTTKLSVENNKTSITSDIGMQFFDPRTQNILFSTDYETHEFHEPSGVKSLNVQKASTERITSNATSDLNIKVDGRAIVRGNEGVFIMGKTIEFHMGGNMELKAENSIILNGSVMVSTTRLPSSSSGDQLGSGDWVRYKLCMCADGTLFKVQVTSQNMGCQISDNPCGNTH [L191E] | -1.09 |
| MAAAAAAAAEQQSSNGPVKKSMREKAVERRSVNKEHNSNFKAGYIPIDEDRLHKTGLRGRKGNLAICVIILLFILAVINLIITLVIWAVIRIGPNGCDSMEFHESGLLRFKQVSDMGVIHPLYKSTVGGRRNENLVITGNNQPIVFQQGTTKLSVENNKTSITSDIGMQFFDPRTQNILFSTDYETHEFHCPSGVKSLNVQKASTERITSNATSDLNIKVDGRAIVRGNEGVFIMGKTIEFHMGGNMELKAENSIILNGSVMVSTTRLPSSSSGDQLGSGDWVRYKLCMCADGTLFKVQVTSQNMGCQISDNPCGNTH [L191C] | -0.5 |
| MAAAAAAAAEQQSSNGPVKKSMREKAVERRSVNKEHNSNFKAGYIPIDEDRLHKTGLRGRKGNLAICVIILLFILAVINLIITLVIWAVIRIGPNGCDSMEFHESGLLRFKQVSDMGVIHPLYKSTVGGRRNENLVITGNNQPIVFQQGTTKLSVENNKTSITSDIGMQFFDPRTQNILFSTDYETHEFHAPSGVKSLNVQKASTERITSNATSDLNIKVDGRAIVRGNEGVFIMGKTIEFHMGGNMELKAENSIILNGSVMVSTTRLPSSSSGDQLGSGDWVRYKLCMCADGTLFKVQVTSQNMGCQISDNPCGNTH [L191A] | -1.71 |
| MAAAAAAAAEQQSSNGPVKKSMREKAVERRSVNKEHNSNFKAGYIPIDEDRLHKTGLRGRKGNLAICVIILLFILAVINLIITLVIWAVIRIGPNGCDSMEFHESGLLRFKQVSDMGVIHPLYKSTVGGRRNENLVITGNNQPIVFQQGTTKLSVENNKTSITSDIGMQFFDPRTQNILFSTDYETHEFRLPSGVKSLNVQKASTERITSNATSDLNIKVDGRAIVRGNEGVFIMGKTIEFHMGGNMELKAENSIILNGSVMVSTTRLPSSSSGDQLGSGDWVRYKLCMCADGTLFKVQVTSQNMGCQISDNPCGNTH [H190R] | 0.34 |
